Positions count from the first letter of the chain named.
B1: C978 (antibody, V domains shown)
VH: QVQLVQSGAEVKKPGSSVKVSCKASGATFSNYIISWVRQAPGQGLEWMGRTIPLLDIANYAQKFQGRVTITADKSTRIVYMHLGSLTSEDTAVYYCATGKGYSSSSAAYYFDHWGQGTLVTVSS
VL: QSVLTQPPSVSGAPGQRVTISCTGTNSNIGAGYDIHWYQQLPGTAPKLLIYGSNNRPSGVPDRFSGSKSGTSASLAITGLQAEDEADYYCQSYDSSLSGSEVFGGGTKLTVL
notes: human IgG1
B2: R1-32 (antibody, V domains shown)
VH: EVQLVESGAEVKKPGSSVKVSCKASGGTFSSYAISWVRQAPGQGLEWMGGIIPILGIANYAQKFQGRVTITADKSTSTAYMELSSLRSEDTAVYYCARENGYSGYGAAANFDLWGRGTLVTVSS
VL: QSVLTQPPSVSGAPGQRVTISCTGSSSNIGAGYDVHWYQQLPGTAPKLLIYGNSNRPSGVPDRFSGSKSGTSASLAITGLQAEDEADYYCQSYDSSLSGSVFGGGTKLTVL
notes: human IgG1
B3: C091 (antibody, V domains shown)
VH: QVQLVQSGAEVKKPGSSVKVSCKASGGTFSSYTISWVRQAPGQGLEWMGRIIPILGIANYAQKFQGRVTITADKSTSTAYMELSSLRSEDTAVYYCARDSGYSGYGSTYYMDVWGKGTTVTVSS
VL: B2 VL with G104T, G105V, L108V
notes: human IgG1
B4: C807 (antibody, V domains shown)
VH: QVQLVQSGAEAKKPGSSVKVSCKASGGTFKSYIINWVRQAPGQGLEWMGEIIPIFGTANYAQKFQGRVTSTADESTSTAYMELSSLKSEDTAVYYCARGRGYSGYGASYYFDYWGQGTLVTVSS
VL: B2 VL with S26N, G52A, S96G
notes: human IgG1
B5: R1-32 (human IgG1 monoclonal antibody) (antibody, V domains shown)
VH: B2 VH
VL: B2 VL
B6: C832 (antibody, V domains shown)
VH: B3 VH with T33S, N59S, A79V, S84T, S85G, E89D, S100R, G104D, T108H
VL: B2 VL with G52I, G99D
notes: human IgG1
B7: C092 (antibody, V domains shown)
VH: B3 VH with T28S, S30T, S31N, Y32H, T33F, I57T, K63N, T69M, I70M
VL: B2 VL with S26N, T44A, S54N, G70D, A82V, G99D, G104S, L108V
notes: human IgG1
B8: C963 (antibody, V domains shown)
VH: QVQLVQSGAEVKKPGSSVRVSCKASGGTFSSFTITWVRQAPGQGLEWMGRIIPNLNIPNYAQRFQGRITITAEKSTSTAYLELSSLRSEDTAVYYCARGVGYSGSGSNWYFDLWGRGTLVTVSS
VL: QSVLTQPPSVSGAPGQRVTISCTGSSSNIGAGYDVHWYQQLPGTAPKLLISGHINRPSGVPDRFSGSTSGTSASLAITGLQAEDEADYYCQSYDSSLSDSVFGGGTKLTV
notes: human IgG1
B9: C941 (antibody, V domains shown)
VH: QVQLVQSGAEVKKPGSSVKVSCKASGGTSRSYPISWVRQAPGQGLEWMGRIIPIVGTANYAQRFQGRVTITADESTGTAYMELSSLRSEDTAVYYCARNRGYSDYGSVYYFDYWGQGTLVTVSS
VL: B8 VL with T44A, S51Y, G52R, H53N, T68K, E83D, D99G
notes: human IgG1
B10: FC08 (antibody, V domains shown)
VH: QLLQQSGAEVKKPGSSVKVSCKASGGTFSSYAISWVRQAPGQGLEWMGGIIPIIGIANYAQKFQGRVTITADKSTSTAYMELSSLRSEDTAVYYCARERGYSGYGAAYYFDYWGQGTLVTVSS
VL: SVLTQPPSVSGAPGQRVTISCTGSSSNIGAGYDVHWYQQLPGTAPKLLIYGNSNRPSGVPDRFSGSKSGTSASLAITGLQAEDEADYYCQSYDSSLSGSVFGGGTKLTVL

How the values were obtained:
Experiment in all cases: BLI
Settings in all cases: both partners purified
[1] = target: T1, SARS-CoV-2 wild-type RBD (SARS-CoV-2 wild type)
[2] = target: T1, SARS-CoV-2 wild-type RBD; remark: listed apart in the source
[3] = target: T1, SARS-CoV-2 wild-type RBD; remark: listed apart in the source
[4] = target: SARS-CoV-2 RBD (residues 319-541), wild type (SARS-CoV-2, wild type, UniProt P0DTC2)
[5] = target: T1, SARS-CoV-2 wild-type RBD; remark: listed apart in the source

Row | Binder | Kd [1] | koff [1] | kon [1] | further results
1 | B1 | 0.99 nM | 0.000524 s⁻¹ | 531000 M⁻¹ s⁻¹ | 
2 | B2 |  |  |  | Kd [2]: 2.8 nM; koff [2]: 0.00149 s⁻¹; kon [2]: 533000 M⁻¹ s⁻¹; koff [3]: 0.000376 s⁻¹; kon [3]: 472000 M⁻¹ s⁻¹
3 | B3 | 9.75 nM | 0.00337 s⁻¹ | 346000 M⁻¹ s⁻¹ | 
4 | B4 | 0.79 nM | 0.000431 s⁻¹ | 547000 M⁻¹ s⁻¹ | 
5 | B5 |  |  |  | Kd [4]: 0.8 nM
6 | B6 | 0.63 nM | 0.000246 s⁻¹ | 387000 M⁻¹ s⁻¹ | 
7 | B7 | 0.16 nM | 0.000103 s⁻¹ | 642000 M⁻¹ s⁻¹ | 
8 | B8 | 0.84 nM | 0.000593 s⁻¹ | 709000 M⁻¹ s⁻¹ | 
9 | B9 | 0.77 nM | 0.000117 s⁻¹ | 153000 M⁻¹ s⁻¹ | 
10 | B10 |  |  |  | Kd [5]: 0.35 nM; koff [5]: 0.00028 s⁻¹; kon [5]: 797000 M⁻¹ s⁻¹

— PMC9519457 (Nature Microbiology, 2022)
